Measurements from patent US20220119534A1 (DRAGONFLY THERAPEUTICS, published 2022).

How the values were obtained:
mFc-cNKG2D = target: T1, mFc-cNKG2D (cynomolgus monkey, UniProt P61252 73-216); experiment: SPR Biacore 37 C; mFc-tagged cyno NKG2D dimer, TriNKET as analyte; 1:1 kinetic fit; average of 4
T1 construct: extracellular domain; Made in house (Dragonfly Tx); also called recombinant cyno NKG2D extracellular domain (ECD); mFc-tagged cyno NKG2D dimer; not shown: mouse Fc tag
T1 sequence (looked up): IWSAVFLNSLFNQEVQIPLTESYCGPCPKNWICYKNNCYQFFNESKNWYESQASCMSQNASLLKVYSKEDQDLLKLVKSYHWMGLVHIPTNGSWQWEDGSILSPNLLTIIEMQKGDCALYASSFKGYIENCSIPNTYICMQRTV

Human CLEC12A-His = target: T2, Human CLEC12A-His (human, UniProt Q5QGZ9 65-265); experiment: SPR Biacore 8K 37 C; TriNKET captured on anti-hFc chip, hCLEC12A-His as analyte; 1:1 fit; control sample, n=2
T2 construct: Recombinant soluble protein made in house (Dragonfly Tx); The hCLEC12A spot of the HuProt array is written under this molecule as well; also called hCLEC12A-His; hCLEC12A; not shown: His tag
T2 sequence: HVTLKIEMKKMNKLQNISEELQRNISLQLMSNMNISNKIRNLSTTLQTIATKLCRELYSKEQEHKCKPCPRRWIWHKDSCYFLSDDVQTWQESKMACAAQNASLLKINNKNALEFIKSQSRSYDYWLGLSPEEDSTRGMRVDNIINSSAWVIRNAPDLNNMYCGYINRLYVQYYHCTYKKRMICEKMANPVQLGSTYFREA

mFc-hNKG2D [1] = target: T3, mFc-hNKG2D (human, UniProt P26718 73-216); experiment: SPR Biacore 8K 37 C; mFc-hNKG2D captured on anti-mFc chip, TriNKET as analyte; 1:1 kinetic fit; after 2 wks 40 C at pH 8.0
T3 construct: extracellular domain; Made in house (Dragonfly Tx); the order of tag and ECD follows the name mFc-hNKG2D; also called mFc-tagged human NKG2D; not shown: mouse Fc tag
T3 sequence (looked up): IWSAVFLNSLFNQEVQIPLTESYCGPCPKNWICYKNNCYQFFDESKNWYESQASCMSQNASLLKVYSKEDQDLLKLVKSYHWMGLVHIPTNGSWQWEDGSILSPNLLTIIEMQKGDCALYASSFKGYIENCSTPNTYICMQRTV

mFc-hNKG2D [2] = target: T3, mFc-hNKG2D; experiment: SPR Biacore 8K 37 C; mFc-hNKG2D captured on anti-mFc chip, TriNKET as analyte; 1:1 kinetic fit; after 4 wks 40 C in phosphate/citrate/NaCl pH 7.8, n=2
Protocol: Association was monitored for 60 seconds and dissociation was monitored for 60 seconds. Surfaces were regenerated between cycles with three pulses of 10 mM glycine-HCl, pH 1.7 injected for 20 seconds at 100 μL/min. HBS-EP+ (1×) buffer was used throughout the experiment. Data were analyzed using Biacore 8K Insight evaluation software (GE Healthcare).

koff (mFc-cNKG2D): 0.141 s⁻¹
kon (mFc-cNKG2D): 168000 M⁻¹ s⁻¹
Kd (Human CLEC12A-His): 1.2 nM
koff (Human CLEC12A-His): 0.000933 s⁻¹
kon (Human CLEC12A-His): 779000 M⁻¹ s⁻¹
Kd (mFc-hNKG2D [1]): 905 nM
koff (mFc-hNKG2D [1]): 0.122 s⁻¹
kon (mFc-hNKG2D [1]): 135000 M⁻¹ s⁻¹
Kd (mFc-hNKG2D [2]): 869 nM
koff (mFc-hNKG2D [2]): 0.133 s⁻¹
kon (mFc-hNKG2D [2]): 153000 M⁻¹ s⁻¹
B1: F3'-1602 TriNKET (bispecific antibody, human IgG1, kappa)
chain: QLQLQESGPGLVKPSETLSLTCTVSGFSLTNYGLHWIRQPPGKCLEWIGVIWSGGKTDYNPSLKSRVTISKDTSKNQFSLKLSSVQAADTAVYYCAKYDYDDSLDYWGQGTLVTVSSGGGGSGGGGSGGGGSGGGGSDIQMTQSPSSLSASVGDRVTITCHASQNINFWLSWYQQKPGKAPKLLIYEASNLHTGVPSRFSGSGSGTRFTLTISSLQPEDIATYYCQQSHSYPLTFGCGTKLEIKGSDKTHTCPPCPAPELLGGPSVFLFPPKPKDTLMISRTPEVTCVVVDVSHEDPEVKFNWYVDGVEVHNAKTKPREEQYNSTYRVVSVLTVLHQDWLNGKEYKCKVSNKALPAPIEKTISKAKGQPREPRVYTLPPCRDELTKNQVSLTCLVKGFYPSDIAVEWESNGQPENNYKTTPPVLVSDGSFTLYSKLTVDKSRWQQGNVFSCSVMHEALHNHYTQKSLSLSPG
heavy: EVQLVESGGGLVKPGGSLRLSCAASGFTFSSYSMNWVRQAPGKGLEWVSSISSSSSYIYYADSVKGRFTISRDNAKNSLYLQMNSLRAEDTAVYYCARGAPIGAAAGWFDPWGQGTLVTVSSASTKGPSVFPLAPSSKSTSGGTAALGCLVKDYFPEPVTVSWNSGALTSGVHTFPAVLQSSGLYSLSSVVTVPSSSLGTQTYICNVNHKPSNTKVDKKVEPKSCDKTHTCPPCPAPELLGGPSVFLFPPKPKDTLMISRTPEVTCVVVDVSHEDPEVKFNWYVDGVEVHNAKTKPREEQYNSTYRVVSVLTVLHQDWLNGKEYKCKVSNKALPAPIEKTISKAKGQPREPQVCTLPPSRDELTENQVSLTCLVKGFYPSDIAVEWESNGQPENNYKTTPPVLDSDGSFFLYSWLTVDKSRWQQGNVFSCSVMHEALHNHYTQKSLSLSPG
light: DIQMTQSPSSVSASVGDRVTITCRASQGISSWLAWYQQKPGKAPKLLIYAASSLQSGVPSRFSGSGSGTDFTLTISSLQPEDFATYYCQQGVSFPRTFGGGTKVEIKRTVAAPSVFIFPPSDEQLKSGTASVVCLLNNFYPREAKVQWKVDNALQSGNSQESVTEQDSKDSTYSLSSTLTLSKADYEKHKVYACEVTHQGLSSPVTKSFNRGEC
notes: Trispecific F3' format: CLEC12A scFv-Fc paired with NKG2D Fab-Fc; Stressed and control samples of the stability studies are the same molecule; also called AB0237
